Source: publication PMC6353796, “Thermostable Branched-Chain Amino Acid Transaminases From the Archaea Geoglobus acetivorans and Archaeoglobus fulgidus: Biochemical and Structural Characterization” (Frontiers in Bioengineering and Biotechnology, 2019)
“And” between values parts separate entries of the source, which are not always exact repeats. Equal entries are not always repeated.

Target: the molecule itself
Assay: SEC; AF0933 on Superdex 200 HiLoad (1.6 x 60 cm) in 50 mM Tris-HCl, pH 7.5, 500 mM NaCl, 0.05 mM PLP; native molecular mass by size exclusion

B1: AF0933, branched-chain amino acid transaminase (BCAT) from Archaeoglobus fulgidus (enzyme)
chain: MLYVYMDGEFVPENEAKVSIFDHGFLYGDGVFEGIRAYNGRVFRLKEHIDRLYDSAKAIDLEIPITKEEFMEIILETLRKNNLRDAYIRPIVTRGIGDLGLDPRKCQNPSIIVITKPWGKLYGDLYEKGLTAITVAVRRNSFDALPPNIKSLNYLNNILAKIEANAKGGDEAIFLDRNGYVSEGSGDNIFVVKNGAITTPPTINNLRGITREAVIEIINRLGIPFKETNIGLYDLYTADEVFVTGTAAEIAPIVVIDGRKIGDGKPGEITRKLMEEFSKLTESEGVPIYE
modifications: PLP covalently bound (Schiff base, internal aldimine) to Lys150
notes: Class IV branched-chain amino acid transaminase AF0933 of Archaeoglobus fulgidus; subunit 32.4 kDa, 290 amino acids; synthetic gene optimised for E. coli; Mainly homo-hexamer in solution with a small dimeric fraction; hexamer in the crystal; also called AF0933_holo; AF0933_GABC; source: E. coli Rosetta (DE3)-pLysS (pLATE51-AF0933), purified (heat step 70°C, Ni-NTA, Superdex 200)
B1 was tested, and the “stoichiometry N” value was 6 and 2.
